Measured values reported in US20250002585A1.

Target: human PD-L1 on PD-L1 aAPC/CHO-K1 cells (human) (UniProt Q9NZQ7)
Sequence (Q9NZQ7 19-290): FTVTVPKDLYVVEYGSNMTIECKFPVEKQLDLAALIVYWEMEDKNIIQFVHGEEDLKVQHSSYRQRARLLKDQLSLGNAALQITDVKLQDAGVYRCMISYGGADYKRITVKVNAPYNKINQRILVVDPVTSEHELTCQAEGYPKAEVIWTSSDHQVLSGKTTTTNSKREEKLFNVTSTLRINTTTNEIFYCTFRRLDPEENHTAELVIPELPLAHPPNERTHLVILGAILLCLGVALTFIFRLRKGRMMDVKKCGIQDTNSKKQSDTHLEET

Atezolizumab (antibody)
EC50 (read off the curve), fold induction, PD1/PD-L1 blockade cell bioassay: 500 pM
